# Source: the RNAGym collection of RNA variant scans (doi:10.7554/elife.80360)
# B1: CPEB3 Ribozyme (parent)
# chain: GGGGGCCACAGCAGAAGCGUUCACGUCGCGGCCCCUGUCAGAUUCUGGUGAAUCUGCGAAUUCUGCUGU
# Variants of: B1
# Assay: self-cleavage, relative activity (ratio to wild type); higher = more cleavage; co-transcriptional
row,Variant,self-cleavage
1,U55C U61G,0.434
2,U55A U62C,0.67
3,U55A U62A,0.489
4,U53G C54A,0.873
5,G56C A60C,0.295
6,C54G U64A,0.63
7,C54G U64C,0.542
8,A60C U69A,0.474
9,A60C U69G,0.418
10,A59U C66A,0.503
11,A59U C66G,0.592
12,C54A C66G,0.466
13,C54A G65C,0.514
14,A52G U67G,1.02
15,A52G U67C,0.944
16,U53A G56A,0.736
17,U53A G56C,0.411
18,A59C U67G,0.772
19,C54G G68U,0.993
20,A52U U69A,1.03
21,C57A U62A,0.32

row,Variant,self-cleavage
1,A59U G68U,0.924
2,A59U G68A,0.957
3,C57G,0.354
4,C57U,0.375
5,C57A,0.346
6,C54G U69C,1.04
7,C57G A60C,0.258
8,U55G C63U,0.626
9,A59G U69C,1.06
10,U55A A60C,0.343
11,G58U A59G,1.02
12,U55C U67A,0.932
13,U55C U67G,0.826
14,U55C A60G,0.602
15,U55C A60U,0.388
16,A59G U62A,0.918
17,C54G C57U,0.392
18,G56U A59C,0.514
19,G56U A59U,0.672
20,U55C C57U,0.295
21,U55C C57G,0.322

row,Variant,self-cleavage
1,C57A U67A,0.275
2,C57A U67C,0.25
3,C54G U62C,0.483
4,C54G U62G,0.609
5,A52G C66G,0.966
6,U55G,0.881
7,U55A,0.96
8,U55C,0.937
9,C57A A59C,0.335
10,U53C U67A,0.793
11,U53C U67G,0.822
12,U53C U67C,0.872
13,G56C U62G,0.59
14,C54G C63A,0.543
15,A59C C66U,0.727
16,C54U U64C,0.92
17,C54U U64G,0.924
18,C54U U64A,0.905
19,C57A G68C,0.5
20,G58U C66G,0.974
21,A52U G65U,0.664

row,Variant,self-cleavage
1,A52U G65C,0.549
2,C54U A59C,0.678
3,A52U U64A,0.87
4,U55A U61C,0.445
5,G58A U67G,0.988
6,U55C A59G,0.967
7,U55C A59C,0.464
8,C57A A60G,0.347
9,A52U G68A,0.975
10,A59G G65A,0.895
11,G58C C66U,1.02
12,G56U U64G,0.753
13,G56U U64A,0.612
14,C54U U55G,0.806
15,C57A U64G,0.384
16,A59G C66U,0.979
17,G58U C63A,0.951
18,G58A U69C,1.06
19,C54G U67A,0.938
20,G56A C66A,0.702
21,U53G U64A,0.604
